Target: RecA (UniProt P0A7G6 P0A7G6:2-353)
Experiment: FP; positive control; 10 mM Mg acetate, 2 mM ATP, 37 C
Details: tags: New England Biolabs; label: 5' fluorescein
Protocol: FIG. 2A, bottom: Purified RAD51 protein (wild type or mutant F86E) were serially diluted. RecA (New England Biolabs) was used as a positive control. Proteins were added to a 5′terminal fluorescein conjugated oligonucleotide (45 bases of dT) at a 1 μM nucleotide concentration. The mixture was incubated at 37° C. for 30 minutes in 384-well plates containing a reaction buffer (30 mM Tris/acetate pH 7.5, 10 mM Mg²⁺/acetate, 2 mM ATP, 0.1 mM DTT, 0.5 μM BSA). Fluorescence polarization was measured with a plate reader (filters: excitation=485 nm, emission=510 nm). FIG. 2B, top: Varying concentrations of 5′terminal fluorescein conjugated oligonucleotide were used to determine the threshold RAD51 concentration.
RAD51 filament formation can also be studied using oligonucleotides that are end-labeled with a fluorescent tag. Binding of proteins to this substrate DNA can be detected as an increase in anisotropy (or polarization) of the fluorescent tag. This method has been used to monitor the DNA-binding activity of yeast RAD51 (Kim et al., 2001) and RecA (Wittung et al., 1997; Ellouze et al., 1999), which is the […] homolog of RAD51. In this example, this method was modified so that very small sample volumes (30 μl) can be monitored in a high-throughput scale, using 384-well plates and a fluorescent plate reader. […]

Chain of RecA (P0A7G6 2-353, one chain of several): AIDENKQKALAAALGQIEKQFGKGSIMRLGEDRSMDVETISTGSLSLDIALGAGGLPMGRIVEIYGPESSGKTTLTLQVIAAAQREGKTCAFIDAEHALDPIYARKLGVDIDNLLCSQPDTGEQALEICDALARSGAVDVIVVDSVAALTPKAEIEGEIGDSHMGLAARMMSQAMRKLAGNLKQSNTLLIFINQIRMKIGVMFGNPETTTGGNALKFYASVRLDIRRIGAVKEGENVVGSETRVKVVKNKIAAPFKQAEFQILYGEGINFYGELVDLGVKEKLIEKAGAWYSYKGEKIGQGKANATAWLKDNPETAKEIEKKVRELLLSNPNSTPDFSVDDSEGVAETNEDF

TTTTTTTTTTTTTTTTTTTTTTTTTTTTTTTTTTTTTTTTTTTTT (ssDNA) [oligo dT45]
binding result: binds

From patent US20140142103, “Methods and Compositions for Modulating Rad51 and Homologous Recombination” (The University of Chicago, published 2014)
